According to the supplement of paper PMC9112550, “Optimization of the antimicrobial peptide Bac7 by deep mutational scanning” (BMC Biology, 2022):

System: Escherichia coli TOP10
Experiment: shrunken log2 fold change of peptide-encoding DNA abundance (4.5 h post-induction vs induction); higher = less antimicrobial activity (less host growth inhibition)
Conditions: time post-induction: 4.5 h; library: site-saturation at positions 5, 18, 19, 20
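Also: peptides expressed intracellularly from a pBAD plasmid library in pooled LB shake-flask culture, induced with 0.3% L-arabinose, DNA abundance read by NGS, three biological replicates, DESeq2 with apeglm shrinkage.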

Sequence	shrunken log2 fold change
RRIRCRPPRLPRPRPRPPYPPRP	-0.193
RRIRQRPPRLPRPRPRPNMQPRP	-0.619
RRIRPRPPRLPRPRPRPCQWPRP	0.205
RRIRIRPPRLPRPRPRPVADPRP	0.0861
RRIRKRPPRLPRPRPRPWMCPRP	-0.316
RRIRQRPPRLPRPRPRPDPSPRP	-0.132
RRIRCRPPRLPRPRPRPIQIPRP	-0.0558
RRIRHRPPRLPRPRPRPSGAPRP	-0.0845
RRIRARPPRLPRPRPRPTKGPRP	0.308
RRIRSRPPRLPRPRPRPANYPRP	-0.43
RRIRSRPPRLPRPRPRPCNAPRP	-0.0263
RRIRIRPPRLPRPRPRPPLEPRP	-0.272
RRIRLRPPRLPRPRPRPEKSPRP	0.123
RRIRMRPPRLPRPRPRPPGCPRP	0.451
RRIRIRPPRLPRPRPRPAPKPRP	0.187
RRIRLRPPRLPRPRPRPCPYPRP	0.0232
RRIRCRPPRLPRPRPRPFPSPRP	0.118
RRIRGRPPRLPRPRPRPFYGPRP	-0.0443
RRIRYRPPRLPRPRPRPQHMPRP	-0.629
RRIRDRPPRLPRPRPRPKRTPRP	0.143
RRIRWRPPRLPRPRPRPPCVPRP	0.301
RRIRCRPPRLPRPRPRPIFHPRP	-0.333
RRIRMRPPRLPRPRPRPCFNPRP	-0.000544
RRIRWRPPRLPRPRPRPRLTPRP	0.307
RRIRVRPPRLPRPRPRPLTVPRP	0.0473

Sequence	shrunken log2 fold change
RRIRHRPPRLPRPRPRPYLEPRP	-0.0394
RRIRFRPPRLPRPRPRPTWQPRP	0.145
RRIRLRPPRLPRPRPRPMDTPRP	-0.323
RRIRLRPPRLPRPRPRPPHTPRP	0.26
RRIRKRPPRLPRPRPRPDTSPRP	0.0236
RRIRWRPPRLPRPRPRPFMWPRP	-0.0278
RRIRMRPPRLPRPRPRPAARPRP	0.975
RRIRPRPPRLPRPRPRPHRGPRP	-0.0385
RRIRCRPPRLPRPRPRPWFMPRP	-0.776
RRIRHRPPRLPRPRPRPMLSPRP	-0.0786
RRIRVRPPRLPRPRPRPWKVPRP	-0.0954
RRIRKRPPRLPRPRPRPARIPRP	0.0491
RRIRHRPPRLPRPRPRPMSFPRP	-0.089
RRIRQRPPRLPRPRPRPECLPRP	-0.21
RRIRRRPPRLPRPRPRPTWGPRP	0.42
RRIRRRPPRLPRPRPRPFYMPRP	-0.198
RRIRSRPPRLPRPRPRPHFHPRP	-0.428
RRIRDRPPRLPRPRPRPPIYPRP	-0.242
RRIRIRPPRLPRPRPRPANLPRP	-0.584
RRIRYRPPRLPRPRPRPSFMPRP	-0.759
RRIRERPPRLPRPRPRPIAMPRP	0.188
RRIRWRPPRLPRPRPRPRGFPRP	0.25
RRIRERPPRLPRPRPRPTSQPRP	-0.235
RRIRGRPPRLPRPRPRPDDAPRP	0.314
RRIRARPPRLPRPRPRPMYLPRP	-0.506

Sequence	shrunken log2 fold change
RRIRVRPPRLPRPRPRPCHRPRP	-0.0177
RRIRTRPPRLPRPRPRPDHMPRP	-0.109
RRIRQRPPRLPRPRPRPPTVPRP	-0.225
RRIRSRPPRLPRPRPRPFSYPRP	-0.0241
RRIRLRPPRLPRPRPRPHGEPRP	0.191
RRIRCRPPRLPRPRPRPSNFPRP	-0.627
RRIRARPPRLPRPRPRPIAAPRP	0.925
RRIRYRPPRLPRPRPRPHFHPRP	-0.489
RRIRARPPRLPRPRPRPPNFPRP	-0.0624
RRIRDRPPRLPRPRPRPKEHPRP	0.0267
RRIRMRPPRLPRPRPRPEGLPRP	0.0151
RRIRPRPPRLPRPRPRPQPRPRP	0.603
RRIRQRPPRLPRPRPRPWAEPRP	-0.0482
RRIRGRPPRLPRPRPRPIEKPRP	0.942
RRIRIRPPRLPRPRPRPQYNPRP	-1.12
RRIRHRPPRLPRPRPRPDMCPRP	-0.173
RRIRYRPPRLPRPRPRPQHSPRP	-0.978
RRIRERPPRLPRPRPRPKQFPRP	-0.0933
RRIRFRPPRLPRPRPRPKMDPRP	-0.0752
RRIRRRPPRLPRPRPRPMEGPRP	0.0518
RRIRIRPPRLPRPRPRPNAQPRP	-0.0106
RRIRHRPPRLPRPRPRPLFCPRP	-0.604
RRIRCRPPRLPRPRPRPQKVPRP	-0.127
RRIRQRPPRLPRPRPRPPHIPRP	0.213
RRIRDRPPRLPRPRPRPQYYPRP	0.003

Sequence	shrunken log2 fold change
RRIRQRPPRLPRPRPRPAWEPRP	0.245
RRIRIRPPRLPRPRPRPHAWPRP	0.0947
RRIRMRPPRLPRPRPRPDSTPRP	1.09
RRIRQRPPRLPRPRPRPMVEPRP	0.168
RRIRVRPPRLPRPRPRPDFFPRP	-0.0229
RRIRLRPPRLPRPRPRPANTPRP	-0.124
RRIRMRPPRLPRPRPRPLTKPRP	0.212
RRIRVRPPRLPRPRPRPYKIPRP	-0.726
RRIRERPPRLPRPRPRPLEPPRP	0.0736
RRIRGRPPRLPRPRPRPDLSPRP	0.121
RRIRPRPPRLPRPRPRPSEMPRP	-0.216
RRIRTRPPRLPRPRPRPGDWPRP	0.73
RRIRPRPPRLPRPRPRPYNNPRP	-1.25
RRIRWRPPRLPRPRPRPWYWPRP	-0.209
RRIRYRPPRLPRPRPRPMQSPRP	2.85
RRIRFRPPRLPRPRPRPADQPRP	-0.144
RRIRYRPPRLPRPRPRPGNYPRP	-0.0361
RRIRMRPPRLPRPRPRPQWIPRP	-0.00285
RRIRTRPPRLPRPRPRPAYGPRP	-0.285
RRIRMRPPRLPRPRPRPVNNPRP	-0.0848
RRIRHRPPRLPRPRPRPRWAPRP	0.315
RRIRQRPPRLPRPRPRPWCPPRP	-0.261
RRIRSRPPRLPRPRPRPQNTPRP	-0.522
RRIRMRPPRLPRPRPRPQEHPRP	0.0123
RRIRIRPPRLPRPRPRPQECPRP	-0.0195

Sequence	shrunken log2 fold change
RRIRRRPPRLPRPRPRPEIQPRP	0.0536
RRIRFRPPRLPRPRPRPIEEPRP	0.0565
RRIRHRPPRLPRPRPRPMEIPRP	-0.0801
RRIRWRPPRLPRPRPRPPKEPRP	0.433
RRIRWRPPRLPRPRPRPPAFPRP	0.204
RRIRKRPPRLPRPRPRPTNIPRP	-0.188
RRIRQRPPRLPRPRPRPFGYPRP	-0.148
RRIRERPPRLPRPRPRPVYQPRP	-0.0713
RRIRERPPRLPRPRPRPRYWPRP	0.185
RRIRIRPPRLPRPRPRPSFNPRP	-0.838
RRIRYRPPRLPRPRPRPKSDPRP	-0.299
RRIRFRPPRLPRPRPRPIILPRP	-1.74
RRIRYRPPRLPRPRPRPETWPRP	0.093
RRIRQRPPRLPRPRPRPGFQPRP	0.00598
RRIRMRPPRLPRPRPRPKIVPRP	0.0132
RRIRIRPPRLPRPRPRPSFDPRP	-0.442
RRIRWRPPRLPRPRPRPIESPRP	0.467
RRIRNRPPRLPRPRPRPRMCPRP	0.138
RRIRTRPPRLPRPRPRPMINPRP	-0.239
RRIRHRPPRLPRPRPRPSCMPRP	-0.224
RRIRIRPPRLPRPRPRPYIYPRP	-0.176
RRIRTRPPRLPRPRPRPQPPPRP	0.357
RRIRKRPPRLPRPRPRPINKPRP	-0.328
RRIRKRPPRLPRPRPRPRFVPRP	0.0638
RRIRDRPPRLPRPRPRPGVPPRP	0.000778

Sequence	shrunken log2 fold change
RRIRMRPPRLPRPRPRPSFWPRP	0.459
RRIRHRPPRLPRPRPRPIFSPRP	-0.176
RRIRSRPPRLPRPRPRPWISPRP	0.181
RRIRMRPPRLPRPRPRPECVPRP	2.97
RRIRGRPPRLPRPRPRPPLHPRP	0.501
RRIRQRPPRLPRPRPRPCYEPRP	-0.0157
RRIRSRPPRLPRPRPRPVMGPRP	-0.0522
RRIRQRPPRLPRPRPRPCMNPRP	-0.0959
RRIRYRPPRLPRPRPRPWHKPRP	-0.377
RRIRIRPPRLPRPRPRPSSYPRP	-0.207
RRIRDRPPRLPRPRPRPKNYPRP	-0.303
RRIRMRPPRLPRPRPRPKQFPRP	0.255
RRIRHRPPRLPRPRPRPAPKPRP	-0.164
RRIRDRPPRLPRPRPRPHKQPRP	0.00319
RRIRGRPPRLPRPRPRPMHSPRP	0.668
RRIRKRPPRLPRPRPRPLWGPRP	0.115
RRIRGRPPRLPRPRPRPACEPRP	0.833
RRIRDRPPRLPRPRPRPVGDPRP	0.47
RRIRCRPPRLPRPRPRPETNPRP	0.222
RRIRMRPPRLPRPRPRPPTAPRP	1.03
RRIRIRPPRLPRPRPRPCGAPRP	-0.25
RRIRWRPPRLPRPRPRPIHTPRP	-0.275
RRIRQRPPRLPRPRPRPFTPPRP	-0.388
RRIRHRPPRLPRPRPRPMMSPRP	0.0372
RRIRNRPPRLPRPRPRPYYPPRP	-0.141
